Source: paper PMC3473065

B1: wild-type Ncd dimeric motor protein (MGSM-H293-K700) (domain or fragment)
chain: MGSMHAALSTEVVHLRQRTEELLRCNEQQAAELETCKEQLFQSNMERKELHNTVMDLRGNIRVFCRIRPPLESEENRMCCTWTYHDESTVELQSIDAQAKSKMGQQIFSFDQVFHPLSSQSDIFEMVSPLIQSALDGYNICIFAYGQTGSGKTYTMDGVPESVGVIPRTVDLLFDSIRGYRNLGWEYEIKATFLEIYNEVLYDLLSNEQKDMEIRMAKNNKNDIYVSNITEETVLDPNHLRHLMHTAKMNRATASTAGNERSSRSHAVTKLELIGRHAEKQEISVGSINLVDLAGSESPKTSTRMTETKNINRSLSELTNVILALLQKQDHIPYRNSKLTHLLMPSLGGNSKTLMFINVSPFQDCFQESVKSLRFAASVNSCKMTKAKRNRYLNNSVANSSTQSNNSGSFDK
B2: NcdY485K dimeric motor protein (MGSM-H293-K700) (domain or fragment)
chain: MGSMHAALSTEVVHLRQRTEELLRCNEQQAAELETCKEQLFQSNMERKELHNTVMDLRGNIRVFCRIRPPLESEENRMCCTWTYHDESTVELQSIDAQAKSKMGQQIFSFDQVFHPLSSQSDIFEMVSPLIQSALDGYNICIFAYGQTGSGKTYTMDGVPESVGVIPRTVDLLFDSIRGYRNLGWEYEIKATFLEIKNEVLYDLLSNEQKDMEIRMAKNNKNDIYVSNITEETVLDPNHLRHLMHTAKMNRATASTAGNERSSRSHAVTKLELIGRHAEKQEISVGSINLVDLAGSESPKTSTRMTETKNINRSLSELTNVILALLQKQDHIPYRNSKLTHLLMPSLGGNSKTLMFINVSPFQDCFQESVKSLRFAASVNSCKMTKAKRNRYLNNSVANSSTQSNNSGSFDK
B3: NcdY485E dimeric motor protein (MGSM-H293-K700) (domain or fragment)
chain: MGSMHAALSTEVVHLRQRTEELLRCNEQQAAELETCKEQLFQSNMERKELHNTVMDLRGNIRVFCRIRPPLESEENRMCCTWTYHDESTVELQSIDAQAKSKMGQQIFSFDQVFHPLSSQSDIFEMVSPLIQSALDGYNICIFAYGQTGSGKTYTMDGVPESVGVIPRTVDLLFDSIRGYRNLGWEYEIKATFLEIENEVLYDLLSNEQKDMEIRMAKNNKNDIYVSNITEETVLDPNHLRHLMHTAKMNRATASTAGNERSSRSHAVTKLELIGRHAEKQEISVGSINLVDLAGSESPKTSTRMTETKNINRSLSELTNVILALLQKQDHIPYRNSKLTHLLMPSLGGNSKTLMFINVSPFQDCFQESVKSLRFAASVNSCKMTKAKRNRYLNNSVANSSTQSNNSGSFDK
B4: NcdY485N dimeric motor protein (MGSM-H293-K700) (domain or fragment)
chain: MGSMHAALSTEVVHLRQRTEELLRCNEQQAAELETCKEQLFQSNMERKELHNTVMDLRGNIRVFCRIRPPLESEENRMCCTWTYHDESTVELQSIDAQAKSKMGQQIFSFDQVFHPLSSQSDIFEMVSPLIQSALDGYNICIFAYGQTGSGKTYTMDGVPESVGVIPRTVDLLFDSIRGYRNLGWEYEIKATFLEINNEVLYDLLSNEQKDMEIRMAKNNKNDIYVSNITEETVLDPNHLRHLMHTAKMNRATASTAGNERSSRSHAVTKLELIGRHAEKQEISVGSINLVDLAGSESPKTSTRMTETKNINRSLSELTNVILALLQKQDHIPYRNSKLTHLLMPSLGGNSKTLMFINVSPFQDCFQESVKSLRFAASVNSCKMTKAKRNRYLNNSVANSSTQSNNSGSFDK

Experiments:
microtubules [1] = target: microtubules
microtubules [2] = test: co-sedimentation; microtubule pelleting assay: 0.7 µM motor with 2 µM microtubules and 0.1 mM Mg·ADP in HEM100 (10 mM HEPES pH 7.2, 1 mM EGTA, 1 mM MgCl2, 100 mM NaCl); centrifugation, SDS-PAGE; corrected for motor that pelleted without microtubules

Binder	K (M,MT) of steady-state ATPase, 0.5 µM motor + 0-25 µM microtubules (microtubules [1])	MT binding with ADP (fraction bound) (fraction bound) (microtubules [2])
B1	17 µM	0.2
B2	1.6 µM	0.6
B3	–	0.29
B4	–	0.37
